Experimental data published in publication PMC10412687.
Positions count from the first letter of the chain named. Numbers in names are those of the source. Each block holds one molecule with its values, some of them ahead of it.

Assays:
[1] = target: RNase E C-terminal domain (residues 451-898) with C-terminal eYFP (Caulobacter crescentus); assay: partitioning of a fluorescent client into condensates (fluorescence microscopy), peptide competition; PNPase incubated with peptide (GWW or scrambled, 0 to 200 µM) before adding RNase E to form droplets; 20 mM Tris pH 7.5, 1 mM MgCl2, 10 mM Na2HPO4 pH 7.5, 100 mM NaCl (120 mM NaCl in Fig. S2), 10% PEG 8000 (Figs. S2, S3)
[2] = target: RNase E C-terminal domain (residues 451-898) with C-terminal eYFP (Caulobacter crescentus); assay: partitioning of a fluorescent client into condensates (fluorescence microscopy); RNase E CTD condensates as scaffold, PNPase-mCherry variants as clients; 20 mM Tris pH 7.5, 20 mM MgCl2, 4 mM Na2HPO4 pH 7.5, 70 mM NaCl, 0.5 mM DTT; 30 min at room temperature; partitioning ratio (Fig. 3)
[3] = target: RNase E C-terminal domain (residues 451-898) with C-terminal eYFP (Caulobacter crescentus); assay: partitioning of a fluorescent client into condensates (fluorescence microscopy); 20 µM RNase E CTD-eYFP (or ∆PNP-BS) condensates as scaffold, mCherry-labelled client; 20 mM Tris pH 7.5, 1 mM MgCl2, 10 mM Na2HPO4 pH 7.5, 100 mM NaCl, 10% PEG 8000; 30 min at room temperature; partitioning ratio = mean droplet signal / mean non-droplet signal (Figs. 2, S1)

partitioning ratio (without peptide) [1]: 2.8
partitioning ratio with 100 µM GWW peptide [1]: 1.7
Molecule: PNPase-mCherry as used in the peptide competition and poly(A) recruitment microscopy (from UniProt Q9AC32 1-712) (enzyme)

partitioning ratio [2]: 4.4
partitioning ratio [3]: 5.7
B1: PNPase-S439A/S440A/S441A-mCherry (PNPase active site mutant) (enzyme)
chain: MFDIKRKTIEWGGKTLVLETGRIARQADGAVLATMGETVVLATAVFAKSQKPGQDFFPLTVNYQEKTFAAGKIPGGFFKREGRPSEKETLVSRLIDRPIRPLFVKGFKNEVQVVVTVLQHDLENDPDILGMVAASAALCLSGAPFMGPIGAARVGWVDGAYVLNPTLDEMKESKMDLVVAGTADAVMMVESEIQELSEEIVLGGVNFAHQQMQAVIDAIIDLAEHAAKEPFAFEPEDTDAIKAKMKDLVGADIAAAYKIQKKQDRYEAVGAAKKKAIAALGLSDENPTGYDPLKLGAIFKELEADVVRRGILDTGLRIDGRDVKTVRPILGEVGILPRTHGSALFTRGETQAIVVATLGTGDDEQFIDALEGTYKESFLLHYNFPPYSVGETGRMGSPGRREIGHGKLAWRALRPMLPTKEDFPYTIRLVSEITESNGAAAMATVCGSSLAMMDAGVPLVRPVSGIAMGLILEQDGFAVLSDILGDEDHLGDMDFKVAGTSEGLTSLQMDIKIAGITPAIMEQALAQAKEGRAHILGEMNKAMDAPRADVGDFAPKIETINIPTDKIREVIGSGGKVIREIVATTGAKVDINDDGVVKVSASDGAKIKAAIDWIKSITDEAEVGKIYDGKVVKVVDFGAFVNFFGAKDGLVHVSQISNERVAKPSDVLKEGQMVKVKLLGFDDRGKTKLSMKVVDQETGEDLSKKEAAAEEA

partitioning ratio [2]: 1
B2: PNPase-V104A/E224A/F233A-mCherry (enzyme)
chain: B1 chain with V104A, E224A, F233A, A439S, A440S, A441S
